Results as given in patent publication WO2012175740A1 (dated 2012).
Residue numbers refer to the chain shown, from its start.

T1: cyno IgE c(epsilon)2-c(epsilon)3-c(epsilon)4 Fc fragment with C-terminal (His)10 tag (cynomolgus monkey)
T1 construct: Made in HEK-EBNA cells with the murine Ig kappa leader; Biotinylated in the Alphascreen; also called cyno IgE Fc; cyno IgE-Fc
T1 chain: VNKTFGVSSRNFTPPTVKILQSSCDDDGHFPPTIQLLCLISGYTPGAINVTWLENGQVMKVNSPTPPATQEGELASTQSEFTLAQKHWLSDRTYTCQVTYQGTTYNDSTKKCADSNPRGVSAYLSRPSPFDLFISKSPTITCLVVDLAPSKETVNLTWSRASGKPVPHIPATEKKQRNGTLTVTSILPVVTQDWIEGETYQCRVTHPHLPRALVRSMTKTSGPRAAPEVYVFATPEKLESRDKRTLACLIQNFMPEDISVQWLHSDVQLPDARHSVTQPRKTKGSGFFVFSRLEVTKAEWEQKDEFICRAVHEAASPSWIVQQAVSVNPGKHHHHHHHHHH

B1: Nanobody 39B2 (VHH)
VHH: EVQLVESGGGLVQPGGSLRLSCAASGFTFGSYDMSWVRQAPGKGPEWVSAINSGGGSTYYADSVKGRFTISRDNAKNTLYLQMNSLKPEDTAVYYCSTDLGPWIEGTMEEYEYEYWGQGTQVTVSS
notes: also called 39B02; not shown: C-terminal c-myc tag and His6 tag
B2: Nanobody 39D11 (VHH)
VHH: EVQLVESGGGLVQPGGSLRLSCAASGFTFGSYDMSWVRQAPGKGPEWVSSIDTGGDITHYADSVKGRFTISRDNANNMLYLQMNSLKPEDTAVYWCATDEDYALGPNEYDYYGQGTQVTVSS
notes: not shown: C-terminal c-myc tag and His6 tag
B3: Nanobody 39D8 (VHH)
VHH: B2 VHH with E89G
notes: also called 39D08; not shown: C-terminal c-myc tag and His6 tag
B4: Nanobody 36G5 (VHH)
VHH: EVQLVESGGGLVQPGGSLRLSCVASGFTFGSYDMSWVRQAPGKRPEWVSAINSGGGSTYYADSVKGRFTISRDNAKNTLYLQMNSLKPEDTAVYYCATDEDYALGPNEYDYYGQGTQVTVSS
notes: as for B2
B5: Nanobody 42D7 (VHH)
VHH: B2 VHH with S17P
notes: as for B2
B6: Nanobody 42G5 (VHH)
VHH: B2 VHH with Q13R, S31N, S63P, N76A, M78T, W95Y
notes: as for B2

These binders were tested against T2, human IgE (Diatec, Oslo, Norway) (human, UniProt P01854-1 1-428) (assay: cell-based or functional assay).
T2 sequence (P01854 other isoform, or with tags, fused parts or gaps): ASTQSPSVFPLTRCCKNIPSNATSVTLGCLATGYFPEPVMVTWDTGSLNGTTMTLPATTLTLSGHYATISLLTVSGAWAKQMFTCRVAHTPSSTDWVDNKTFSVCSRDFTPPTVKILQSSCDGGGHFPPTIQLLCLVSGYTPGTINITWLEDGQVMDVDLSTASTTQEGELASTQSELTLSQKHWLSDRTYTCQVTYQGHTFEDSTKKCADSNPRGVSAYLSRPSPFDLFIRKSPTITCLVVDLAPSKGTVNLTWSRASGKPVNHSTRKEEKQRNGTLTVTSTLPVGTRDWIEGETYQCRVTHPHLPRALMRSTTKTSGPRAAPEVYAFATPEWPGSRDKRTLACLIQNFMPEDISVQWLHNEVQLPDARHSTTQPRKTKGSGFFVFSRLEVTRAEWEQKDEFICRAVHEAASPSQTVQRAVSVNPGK

block of degranulation at 500 nM Nanobody | Binder
25% | B1
> 95% | B2
> 95% | B3
> 95% | B4

The binders below were run against T2, human IgE (Diatec, Oslo, Norway) (assay: ELISA, competition with coated Fc(epsilon)RII for HuIgE).

fold less potent (against 39D11, 36G5 and Reference Fab) | Binder
10 fold | B1

Target: T1, cyno IgE …
Assay: Alphascreen, competition with HuFc(epsilon)RI(alpha)Fc for cyno IgE Fc

% inhibition at 250 nM Nanobody | IC50 | Binder
93.5% | 0.119 nM | B2
92.7% | 0.127 nM | B5
91.2% | 0.96 nM | B6
93.6% | 0.0742 nM | B3
88.1% | 0.584 nM | B4

These binders were tested against T2, human IgE (Diatec, Oslo, Norway) (assay: ELISA, competition with coated Fc(epsilon)RI for HuIgE).

% inhibition by 500 nM Nanobody | IC50 | Binder
69.3% | 39.4 nM | B1
99.5% | 0.511 nM | B2
99.6% | 0.959 nM | B5
98.1% | 8.38 nM | B6
99.4% | 0.55 nM | B3
98.6% | 2.96 nM | B4
